The supplement of paper PMC9732359
± gives the uncertainty stated by the source.

Test: protein stability index of a GFP-peptide fusion (yeast GPS) (PSI 1-4); higher = more stable; sorted into four equal gates, so the index is relative within each strain
Summary of the method: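 The protein stability index of a peptide was calculated by multiplying its read frequency in each gate by that gate's number and adding the products. The peptides were tiled 17-residue stretches of yeast proteins, fused downstream of GFP on a Cherry-expressing plasmid and carried in yeast as a pooled library. Mid-log cultures in leucine-free medium were sorted into four equal gates by GFP/Cherry ratio, and each gate's plasmids were PCR-amplified and Illumina-sequenced.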

| Sequence | protein stability index (doa10∆) | protein stability index (pdr5∆) | protein stability index (san1∆) | protein stability index (ubr1∆) |
| --- | --- | --- | --- | --- |
| TASDQLFGMCESLYEPN [PUP3] | 2.06 ± 0.059 | 2.12 ± 0.058 | 2.71 ± 0.084 | 1.83 ± 0.039 |
| AQGTKFRISLGLPVGAI [RPL23A] | 1.94 ± 0.1 | 1.84 ± 0.063 | 1.42 ± 0.17 | 1.92 ± 0.11 |
| VQIKDVNDRYQIPTPNN [CSI1] | 1.72 ± 0.05 | 2.25 ± 0.064 | 1.75 ± 0.12 | 1.73 ± 0.049 |
| VLEFCKDYEAKTKAMSL [POP1] | 3.06 ± 0.045 | 2.67 ± 0.043 | 2.73 ± 0.037 | 3.06 ± 0.031 |
| VKLGLNSKMPTRFPPAV [PRP8] | 2.78 ± 0.057 | 3.06 ± 0.076 | 2.85 ± 0.051 | 2.73 ± 0.06 |
| SRAQILQIHSRKMTTDD [RPT5] | 2.72 ± 0.082 | 2.43 ± 0.055 | 2.92 ± 0.068 | 3.08 ± 0.046 |
| CSRIIKIDKPIRTQVNT [RGR1] | 1.94 ± 0.067 | 2.31 ± 0.047 | 2.09 ± 0.059 | 2.1 ± 0.039 |
| SDLLVAPPLENENSNCL [YML103C/NUP188] | 3 ± 0.095 | 3.28 ± 0.1 | 3.25 ± 0.14 | 3.18 ± 0.11 |
| HGDAAVLLVEKYGAEYD [NAS6] | 1.94 ± 0.21 | – | 2.96 ± 0.22 | 3.04 ± 0.19 |
| IATDGGRICRPLIIVSD [RET1] | 2.01 ± 0.046 | 2.1 ± 0.037 | 1.73 ± 0.06 | 2.14 ± 0.038 |
| PSRIFYKALRGMVSHKT [RPL16A] | 2.32 ± 0.1 | 1.27 ± 0.075 | 2.44 ± 0.14 | 1.82 ± 0.13 |
| LPDELTLSYDDISAAIV [DLS1] | 2.56 ± 0.055 | 2.53 ± 0.061 | 2.58 ± 0.073 | 2.67 ± 0.05 |
| GDDESKIPAVEYFGGES [FAS1] | – | 3.17 ± 0.29 | 2.97 ± 0.2 | – |
| FQNSKSASLFKQRKNPR [RPL24A] | 2.11 ± 0.097 | 2.44 ± 0.077 | 2.49 ± 0.1 | 1.85 ± 0.053 |
| ERSELLRLFNAPDSEYL [SNF2] | 3.02 ± 0.044 | 2.8 ± 0.051 | 2.87 ± 0.045 | 2.77 ± 0.045 |
| EQEDIIEKTESVDKKVD [SWI3] | 3.04 ± 0.07 | 3.02 ± 0.081 | 3.14 ± 0.041 | 2.99 ± 0.094 |
| SDEEESVLDEQEQYQTN [SNU114] | 3.11 ± 0.14 | 3.25 ± 0.079 | 3.25 ± 0.11 | 3.31 ± 0.069 |
| VRDVAAQDFINAYASFL [RPS19A] | 2.85 ± 0.078 | 2.5 ± 0.092 | 2.96 ± 0.22 | 2.21 ± 0.088 |
| DVQLERVADEDANLNDL [IRR1] | 2.89 ± 0.17 | – | – | – |
| DRDALSGWGAVVYIIKK [PUP3] | 3.12 ± 0.081 | 2.96 ± 0.063 | 2.99 ± 0.06 | 3.13 ± 0.056 |
| MTTFYKCVNCGHRWKEN [RPC11] | 2.82 ± 0.16 | 2.66 ± 0.071 | 2.22 ± 0.15 | 2.74 ± 0.071 |
| DEEMLTSCTIPKAVVDH [GAL11] | 2.94 ± 0.085 | 2.77 ± 0.076 | 2.44 ± 0.12 | 2.9 ± 0.076 |
| DQLEDLREHFKNTEEGK [QCR6] | 2.75 ± 0.27 | 3.51 ± 0.14 | 3.36 ± 0.072 | – |
| SSNTNNNTNNNNTNTGA [SWI1] | 3.48 ± 0.071 | 3.29 ± 0.069 | 3.29 ± 0.057 | 3.33 ± 0.065 |
| LEEHKNHLDELQKKFVT [SMC1] | 2.88 ± 0.08 | 2.83 ± 0.11 | 2.88 ± 0.059 | 2.91 ± 0.052 |
| SLFTYFREAIVATEPLL [PRP8] | 1.82 ± 0.048 | 1.83 ± 0.051 | 2.73 ± 0.063 | 1.97 ± 0.041 |
| LDERFASRVALNKEKLG [IRR1] | 1.27 ± 0.057 | 1.52 ± 0.1 | 1.57 ± 0.18 | 1.55 ± 0.087 |

| Sequence | protein stability index (doa10∆) | protein stability index (pdr5∆) | protein stability index (san1∆) | protein stability index (ubr1∆) |
| --- | --- | --- | --- | --- |
| ESVIEQIVKYARKGLTP [RPS13] | 3.13 ± 0.058 | 2.94 ± 0.073 | 2.76 ± 0.052 | 2.81 ± 0.044 |
| AAPSGNYKQLTLVGGGA [RRP43] | 1.36 ± 0.093 | 2.33 ± 0.07 | 2.23 ± 0.13 | 2.5 ± 0.079 |
| RNRGKIHSGVLSSIESD [YMR153W/NUP53] | 2.93 ± 0.1 | 2.96 ± 0.12 | 3.13 ± 0.066 | 2.94 ± 0.087 |
| KSKTSTGKERSKKRKLN [SNM1] | 3.1 ± 0.085 | 3.2 ± 0.097 | 3.644 ± 0.036 | 3.21 ± 0.09 |
| KNFIESESVGAFLSFLA [YJL039C/NUP192] | 2.1 ± 0.066 | 2.25 ± 0.068 | 2.47 ± 0.066 | 2.85 ± 0.045 |
| NVSFVLPDEKSDAMSID [YCG1] | 3.31 ± 0.072 | 3.3 ± 0.051 | 3.25 ± 0.052 | 3.21 ± 0.067 |
| LKQHNQNNLPPNFFLTL [BRR2] | 2.81 ± 0.064 | 3.07 ± 0.069 | 2.84 ± 0.069 | 2.94 ± 0.071 |
| EAQANLLTAKHGMTLRE [RPO21] | 2.98 ± 0.18 | 3.11 ± 0.099 | 3.14 ± 0.063 | 2.8 ± 0.11 |
| VKGLLNTYKRLVIGIFK [YJL039C/NUP192] | 2.53 ± 0.061 | 2.46 ± 0.051 | 1.5 ± 0.11 | 2.2 ± 0.04 |
| KHEDFVEGISEVQARKS [RPT5] | 3.7 ± 0.24 | – | – | 3.41 ± 0.2 |
| VSLVVNFQISKKMDDYI [PRP28] | 2.39 ± 0.066 | 2.05 ± 0.07 | 2.38 ± 0.1 | 2.03 ± 0.05 |
| KVVEFAITHMIDALGTE [SCL1] | 2.03 ± 0.044 | 2.28 ± 0.038 | 2.27 ± 0.079 | 2.18 ± 0.023 |
| KELVECHLYSQRMHAIH [NNF1] | 1.96 ± 0.056 | 2.05 ± 0.049 | 2.05 ± 0.085 | 2.23 ± 0.05 |
| REKNALKRLAWQYIVID [ISW2] | 2.1 ± 0.099 | 1.74 ± 0.14 | 1.76 ± 0.12 | 2.03 ± 0.082 |
| FQTIFSKQDLIHSLIPV [SIN4] | 1.93 ± 0.046 | 1.9 ± 0.064 | 1.66 ± 0.11 | 1.7 ± 0.05 |
| MSQYQSTMKENKDLSEL [YIL149C/MLP2] | 3 ± 0.16 | 3.12 ± 0.11 | – | 2.76 ± 0.092 |
| VPTVPPSQSEEQKGQMA [MED4] | 2.78 ± 0.12 | 2.82 ± 0.058 | 3 ± 0.067 | 2.6 ± 0.091 |
| SYSGYDIEDALVLNKSS [RET1] | 2.4 ± 0.059 | 2.63 ± 0.052 | 2.18 ± 0.071 | 2.45 ± 0.047 |
| SVDLEKLAFGLTKLNED [TAF14] | 3.54 ± 0.19 | 3.45 ± 0.17 | 3.6 ± 0.092 | 3.61 ± 0.12 |
| DGSQQNLQQDKTNFQDV [REC8] | 3.23 ± 0.071 | 3.38 ± 0.054 | 3.42 ± 0.068 | 3.3 ± 0.038 |
| TDLRLSTNGLGMCQLYF [SNU114] | 3.48 ± 0.12 | 3.52 ± 0.13 | 2.98 ± 0.23 | 3.08 ± 0.21 |
| KLTDEQSSLDVAGLEDK [SIR3] | 2.68 ± 0.083 | 2.85 ± 0.13 | 2.75 ± 0.083 | 3.1 ± 0.062 |
| DRINYTETALMNLKKEL [SRB5] | 3.14 ± 0.14 | 3.28 ± 0.16 | 3.41 ± 0.088 | 3.18 ± 0.095 |
| LLNINGSRKVAGILRGY [SMX2] | 2.64 ± 0.14 | 1.67 ± 0.12 | 2.25 ± 0.14 | 1.52 ± 0.14 |
| SKKIVPSPKKVAIDQDK [SIR4] | 2.73 ± 0.078 | 2.91 ± 0.066 | 2.59 ± 0.06 | 2.92 ± 0.057 |
| RERRIHVTQEDFELAVG [RPT6] | 2.38 ± 0.074 | 2.74 ± 0.06 | 2.08 ± 0.074 | 2.61 ± 0.066 |
